These results are taken from PMC4542545.

This assay concerns the target taxol stabilized microtubules assembled from MAP-free tubulin from bovine brain (bovine) (UniProt Q6B856). The assay can be described thus: co-sedimentation; 1.5 μM GFP-tagged TPPP/p25 with increasing concentrations of taxol stabilized MTs, 15 min at 37 °C, centrifugation; GFP fluorescence of pellets and supernatants; apparent Kd (likely a composite of MT binding and TPPP/p25 dimerization or oligomerization).
For “GFP-tagged TPPP/p25 ΔC(158) (from UniProt O94811 1-157) (domain or fragment)”, the Kd worked out at 1.75 µM.

Turning to “GFP-tagged TPPP/p25 ΔN(49) (from UniProt O94811 50-219) (domain or fragment)”, the Kd was determined as 0.86 µM.

With “GFP-tagged full-length TPPP/p25 (from UniProt O94811 1-219) (natural protein)”, the Kd was determined as 1.44 µM.
